Data: patent publication US20070036796A1 (ROCHE PALO ALTO, published 2007)

B1: <CCR5>Pz03.1C5 (antibody, V domains shown)
VH: QVQLKQSGPGLVRPSQSLSITCTVSGFPLGIFGVHWVRQSPGKGLEWLGVIWKGGNTDYNAAFMSRLRITKDNSKSQVFFRMNSLQTDDTAIYYCAKVNLADAMDYWGQGTSVIVSS
VL: DIQMTQSPASLSASVGETVTITCRASGNIHGYLAWFQQKQGKSPQLLVYNTKTLAEGVPSRFSGSGSGTQFSLKINSLQPEDFGNYYCQHHYDLPRTFGGGTKLEIKR
notes: also called Antibody C; m<CCR5>Pz03.1C5
B2: <CCR5>Pz02.1C11 (antibody, V domains shown)
VH: QVQLKQSGPGLVRPSQSLSITCTVSGFPLGVFGVHWVRQSPGKGLEWLGVIWKGGNTDYNAAFMSRLRISKDNSKSQVFFRMNSLQTDDTAIYYCAKVNLADAMDYWGQGTSVIVSS
VL: DIQMTQSPASLSASVGETVTITCRSSGNIHGYLAWFQQKQGKSPQLLVYNTKALAEGVPSRFSGSGSGTQFSLKINNLQPEDFGIYYCQHHYDLPRTFGGGTKLEIKR
notes: also called Antibody B

Columns and labels:
human CCR5 [1] = biological target: T1, human CCR5 (human, UniProt P51681 1-352); assay: cell-based or functional assay
human CCR5 [2] = biological target: T1, human CCR5; assay: cell-based or functional assay; remark: listed apart in the source
human CCR5 [3] = biological target: T1, human CCR5; assay: epitope mapping with alanine mutants of CCR5
human CCR5 [4] = biological target: T1, human CCR5; assay: cell ELISA on CCR5-expressing cells, hybridoma screening

T1 sequence (P51681 whole entry): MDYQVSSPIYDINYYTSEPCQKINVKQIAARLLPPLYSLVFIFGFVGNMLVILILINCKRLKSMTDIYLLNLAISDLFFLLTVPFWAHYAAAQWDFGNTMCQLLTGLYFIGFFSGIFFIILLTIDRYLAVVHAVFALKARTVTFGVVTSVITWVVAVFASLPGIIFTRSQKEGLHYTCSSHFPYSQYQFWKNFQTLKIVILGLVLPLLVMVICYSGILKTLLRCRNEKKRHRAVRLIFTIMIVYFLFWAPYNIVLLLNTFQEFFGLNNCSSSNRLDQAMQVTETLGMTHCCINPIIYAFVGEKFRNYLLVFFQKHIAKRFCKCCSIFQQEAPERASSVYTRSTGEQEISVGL

Binder | IC50, inhibition of HIV growth in human PBMC, JRCSF (p24 ELISA) (human CCR5 [1]) [µg/mL] | IC50, inhibition of HIV growth in human PBMC, Nl-Bal (p24 ELISA) (human CCR5 [1]) [µg/mL] | IC50, PhenoSenseHIV assay (ViroLogic) using JRCSF strain (human CCR5 [2]) [µg/ml] | IC50, cell-cell fusion assay (gp160-expressing HeLa cells with CEM.NKR-CCR5-Luc cells, luciferase) (human CCR5 [2]) [µg/mL] | binding result (human CCR5 [3]) | binding result (human CCR5 [4])
B1 | 0.013 | 0.029 | 0.16 | 0.38 | binds | 
B2 | 0.025 | 0.025 | 0.17 | 0.79 |  | binds
